Test results reported in patent US20220227853A1 (US Dept. of Health and Human Services, published 2022).

Target: T1, full-length PfCSP on the surface of transgenic P. berghei sporozoites (Pb-PfCSP) (Plasmodium falciparum, UniProt Q7K740 19-374)
T1 construct: whole, on cells; also called Pb-PfCSP SPZ; Pb-PfCSP SPZ GFP/Luc
Assay: flow cytometry on Pb-PfCSP sporozoites, mAb 20 µg/mL, MFI

T1 sequence (Q7K740 19-374): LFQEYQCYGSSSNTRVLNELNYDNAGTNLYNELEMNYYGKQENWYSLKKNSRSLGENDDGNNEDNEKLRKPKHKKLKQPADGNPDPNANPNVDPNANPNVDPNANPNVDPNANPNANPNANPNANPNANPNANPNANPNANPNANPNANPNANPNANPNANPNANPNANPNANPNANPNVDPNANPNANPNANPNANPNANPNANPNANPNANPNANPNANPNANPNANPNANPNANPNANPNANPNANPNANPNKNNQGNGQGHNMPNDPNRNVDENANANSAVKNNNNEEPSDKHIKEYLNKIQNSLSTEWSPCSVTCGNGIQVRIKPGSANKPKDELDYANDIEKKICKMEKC

B1: CIS43 human monoclonal antibody (antibody, V domains shown)
VH: QVQLVQSGAEVKKPGASVKVSCKASGYTFTSYAIHWVRQAPGQRLEWMGWIKAGNGNTRYSQKFQDRVTITRDTSTTTAYMELSSLRSEDTAVYYCALLTVLTPDDAFDIWGQGTMVTVSS
VL: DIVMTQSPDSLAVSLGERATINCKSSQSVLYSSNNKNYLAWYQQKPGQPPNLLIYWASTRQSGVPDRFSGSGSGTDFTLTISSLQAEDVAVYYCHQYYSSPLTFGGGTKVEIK
notes: also called CIS43 IgG
Does B1 bind?
Result: binds
